Tests used:
Assay type in all cases: biochemical
[1] = Aminoacylation activity by Lloyd's method (release of pyrophosphates)
Procedure: In the second method, Lloyd's method (Nucleic Acids Research, 23:2886-2892, 1995) was carried out without alteration.
In the second method, the activity was assayed by Lloyd's method (Nucleic Acids Research, 23:2886-2892, 1995). Each enzyme obtained was incubated with 0.4 ml of the buffer B containing 1 mM ATP (Seikagaku Corporation), 100 μM purified crude tyrosyl-tRNA, 200 μM tyrosine or 3-iodotyrosine at 37° C. for 6 min. The aminoacylation activity was represented as concentrations of released phosphate per min.

[2] = system: tyrosine or 3-iodotyrosine for the full-length tRNA; assay: Aminoacylation of full-length tRNA by acidic polyacrylamide gel electrophoresis (Wolfson); conditions: acidic PAGE; 200 μM amino acid, enzyme 50 nM, 37° C. for 3 min
Procedure: In the third method, levels of aminoacylation activity in the presence of tyrosine or 3-iodotyrosine for the full-length tRNA were assayed by the same method as. acidic polyacrylamide gel electrophoresis described by Wolfson et al. (Wolfson, A. D. et al., RNA, 4:1019-1023, 1998). The result is shown in FIG. 1 as a photo, substitute for a drawing.
In the third method, the aminoacylation activity for tyrosine or 3-iodotyrosine for tRNA in full length was assayed by the same method as acidic polyacrylamide electrophoresis by the method of Wolfson et al. (Wolfson, A. D. et al., RNA, 4:1019-1023, 1998). Tyrosine or iodotyrosine at 200 μM and the enzyme at 50 nM were incubated at 37° C. for 3 min, and subsequently the electrophoresis was carried out. The result of the aminoacylation activity of the enzymes with double mutations are shown on the photo, substitute for a drawing, in FIG. 1. In FIG. 1, left three lanes are from the wild-type enzyme, middle three lanes are from the enzyme modified at position 37 with valine (37V) and right three lanes are from the enzyme modified at positions 37 and 195 with valine and cysteine (VC), respectively. Three lanes in each group show the case without the addition of the amino acid (w/o aa), the case with the addition of 3-iodotyrosine (200 μM) (1-Tyr), and the case with the addition of tyrosine (200 μM) (Tyr), respectively from the left.

[3] = Aminoacylation reaction, simplified Lloyd's method, inorganic phosphate detected with Biomol green; parameters: key: ***: the reaction could be detected strongly at 25 nM; **: strongly at 250 nM; *: weakly at 250 nM; the activity is high in the order of *** > ** > * > —; conditions: Table 3; 3-iodotyrosine 1 mM; 37° C. for 4 min
Procedure: In the first method, Lloyd's method (Nucleic Acids Research, 23:2886-2892, 1995) where inorganic phosphate produced by pyrophosphatase-drived hydrolysis of pyrophosphate which was one of the reaction products of the aminoacylation reactions was quantified was simplified, and the inorganic phosphate was detected using Biomol green (Funakoshi) to carry out the measurement of the aminoacylation reaction.
Amino acid concentrations were 200 μM and 1 mM for tyrosine and 3-iodotyrosine, respectively.
The method where the aminoacylation reaction is measured by quantifying inorganic phosphate produced by pyrophosphatase-drived hydrolysis of pyrophosphate which is one of reaction products of the aminoacylation has been described by Lloyd et al. (Nucleic Acids Research, 23:2886-2892, 1995). In one method of the invention, this method was simplified and the aminoacylation reaction was measured by the detection of inorganic phosphate using Biomol green (Funakoshi). Each enzyme obtained was incubated with 0.05 ml of the buffer B containing 1 mM ATP (Seikagaku Corporation), 30 μM purified crude tyrosyl-tRNA, and 100 μM tyrosine or 0.5 mM 3-iodotyrosine at 37° C. for one hour. To stop the reaction, 0.1 ml of Bio mol green was added. Absorbance of its supernatant was measured at 630 nm.

B1: VC: E. coli TyrRS double variant: position 37 Valine, position 195 Cysteine (protein, UniProt P0AGJ9 2-424, looked up, variant Y37V Q195C)
Tyrosine--tRNA ligase: ASSNLIKQLQERGLVAQVTDEEALAERLAQGPIALVCGFDPTADSLHLGHLVPLLCLKRFQQAGHKPVALVGGATGLIGDPSFKAAERKLNTEETVQEWVDKIRKQVAPFLDFDCGENSAIAANNYDWFGNMNVLTFLRDIGKHFSVNQMINKEAVKQRLNREDQGISFTEFSYNLLQGYDFACLNKQYGVVLCIGGSDQWGNITSGIDLTRRLHQNQVFGLTVPLITKADGTKFGKTEGGAVWLDPKKTSPYKFYQFWINTADADVYRFLKFFTFMSIEEINALEEEDKNSGKAPRAQYVLAEQVTRLVHGEEGLQAAKRITECLFSGSLSALSEADFEQLAQDGVPMVEMEKGADLMQALVDSELQPSRGQARKTIASNAITINGEKQSDPEYFFKEEDRLFGRFTLLRRGKKNYCLICWK
relative tyrosine analogue to tyrosine ratio ([1]; 3-iodotyrosine versus tyrosine, from Table 4): more than 10
Initial velocity of release of pyrophosphates, 3-iodotyrosine ([1]; at 37° C., 200 μM 3-iodotyrosine): 9.5 nM PPi/min/nM enzyme
Initial velocity of release of pyrophosphates, Tyrosine ([1]; at 37° C., 200 μM tyrosine): 0.9 nM PPi/min/nM enzyme
specificity for the tyrosine analogue (attachment of amino acid to tRNA) [2]: high specificity for the tyrosine analogue
Aminoacylation activity, 3-iodotyrosine [3]: **
